Reference: publication PMC3052533, “Amino acid changes within the Bunyamwera virus nucleocapsid protein differentially affect the mRNA transcription and RNA replication activities of assembled ribonucleoprotein templates” (The Journal of General Virology, 2011)
Numbering of substitutions follows the chain as printed.

B1: Bunyamwera virus (BUNV) nucleocapsid (N) protein, wild type (natural protein)
chain: MIELEFHDVAANTSSTFDPEVAYANFKRVHTTGLSYDHIRIFYIKGREIKTSLAKRSEWEVTLNLGGWKITVYNTNFPGNRNNPVPDDGLTLHRLSGFLARYLLEKMLKVSEPEKLIIKSKIINPLAEKNGITWNDGEEVYLSFFPGSEMFLGTFRFYPLAIGIYKVQRKEMEPKYLEKTMRQRYMGLEAATWTVSKLTEVQSALTVVSSLGWKKTNVSAAARDFLAKFGINM
notes: nucleocapsid (N) protein of Bunyamwera virus, expressed from plasmid pET-BUN-N (Rodgers et al., 2006); predicted monomer mass 28.8 kDa; also called BUNV N protein; WT
B2: BUNV N protein R94A (natural protein, Bunyamwera virus, UniProt P16495 1-233, looked up)
chain: B1 chain with R94A
notes: nucleocapsid (N) protein of Bunyamwera virus, from modified plasmid pET-BUN-N, single alanine substitution; monomers and tetramers equally abundant
B3: BUNV N protein R40A (natural protein, Bunyamwera virus, UniProt P16495 1-233, looked up)
chain: B1 chain with R40A
notes: nucleocapsid (N) protein of Bunyamwera virus, from modified plasmid pET-BUN-N, single alanine substitution
B4: BUNV N protein K50A (natural protein, Bunyamwera virus, UniProt P16495 1-233, looked up)
chain: B1 chain with K50A
notes: as for B3
B5: BUNV N protein K55A (natural protein, Bunyamwera virus, UniProt P16495 1-233, looked up)
chain: B1 chain with K55A
notes: as for B3
B6: BUNV N protein R101A (natural protein, Bunyamwera virus, UniProt P16495 1-233, looked up)
chain: B1 chain with R101A
notes: as for B3
B7: BUNV N protein K179A (natural protein, Bunyamwera virus, UniProt P16495 1-233, looked up)
chain: B1 chain with K179A
notes: as for B3

Target: the molecule itself
Test: SEC; Superdex S200 column, purified N proteins analysed immediately following purification; elution compared with molecular mass standards; monomer and tetramer peaks

Protein	stoichiometry N	binding result
B1	4	–
B2	4	–
B3	–	binds
B4	–	binds
B5	–	binds
B6	–	binds
B7	–	binds
